{
  "source": "patent US20110263014",
  "key": {"[1]": {"molecular_target": "T1, mNanog (D67G) (UniProt Q80Z64)", "T1 sequence": "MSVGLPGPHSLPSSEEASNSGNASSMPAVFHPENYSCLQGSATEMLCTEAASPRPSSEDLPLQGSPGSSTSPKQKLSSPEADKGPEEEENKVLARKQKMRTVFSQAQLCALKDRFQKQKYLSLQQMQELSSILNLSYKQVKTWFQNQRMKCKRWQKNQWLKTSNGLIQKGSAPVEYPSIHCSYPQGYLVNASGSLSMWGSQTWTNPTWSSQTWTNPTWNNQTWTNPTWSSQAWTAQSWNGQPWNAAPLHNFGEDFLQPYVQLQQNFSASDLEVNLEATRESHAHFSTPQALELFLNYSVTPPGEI"}, "[2]": {"molecular_target": "T2, mouse Nanog (mNanog) (UniProt Q80Z64)", "T2 sequence": "T1 sequence with G67D"}},
  "note": "Residue numbers refer to the chain shown, from its start.",
  "data": [
    {"substance": "recombinant caspase-9", "values": [
      {"measurement": "cleavage of immunoprecipitated mNanog (D67G) by recombinant caspase", "setting": "[1]", "value": "Mutation D67G in mNanog greatly diminished cleavage of mNanog by caspase-9"},
      {"measurement": "cleavage of immunoprecipitated mNanog by recombinant caspase", "setting": "[2]", "value": "Only caspase-9 effectively cleaved mNanog into a 27 kDa fragment"},
      {"measurement": "in vitro caspase cleavage assay", "setting": "[2]", "value": "caspase-9 can effectively cleave in vitro-translated mNanog"}
    ]}
  ]
}
